From patent US20230365675A1 (published 2023)

Key:
Assay in all cases: FACS, mutant CD33-GFP on 293FT cells
[1] = target: Mutant CD33-GFP M16 (4889AII) on 293FT cells (UniProt P20138)
[2] = target: Mutant CD33-GFP M18 (353AAL) on 293FT cells (UniProt P20138)
[3] = target: Mutant CD33-GFP M19 (348ATAI) on 293FT cells (UniProt P20138)
[4] = target: T1, Mutant CD33-GFP M1 (W22A) on 293FT cells (UniProt P20138 18-364)
T1 construct: whole, on cells; not shown: GFP fused to CD33

[5] = target: T2, Mutant CD33-GFP M2 (H45E) on 293FT cells (UniProt P20138 18-364)
T2 construct: whole, on cells; not shown: GFP fused to CD33

[6] = target: T3, Mutant CD33-GFP M3 (N99A) on 293FT cells (UniProt P20138 18-364)
T3 construct: whole, on cells; not shown: GFP fused to CD33

[7] = target: T4, Mutant CD33-GFP M4 (R122D) on 293FT cells (UniProt P20138 18-364)
T4 construct: whole, on cells; not shown: GFP fused to CD33

[8] = target: T5, Mutant CD33-GFP M5 (AEAD), quadruple mutant, on 293FT cells (UniProt P20138 18-364)
T5 construct: whole, on cells; substitutions left empty; not shown: GFP fused to CD33

[9] = target: T6, Mutant CD33-GFP M6 (F43N) on 293FT cells (UniProt P20138 18-364)
T6 construct: whole, on cells; not shown: GFP fused to CD33

[10] = target: T7, Mutant CD33-GFP M7 (R98D) on 293FT cells (UniProt P20138 18-364)
T7 construct: whole, on cells; not shown: GFP fused to CD33

[11] = target: T8, Mutant CD33-GFP M8 (K52A) on 293FT cells (UniProt P20138 18-364)
T8 construct: whole, on cells; not shown: GFP fused to CD33

[12] = target: T9, Mutant CD33-GFP M9 (Y49, 50A) on 293FT cells (UniProt P20138 18-364)
T9 construct: whole, on cells; Read as the double mutant Y49A + Y50A; not shown: GFP fused to CD33

[13] = target: T10, Mutant CD33-GFP M10 (Y127A) on 293FT cells (UniProt P20138 18-364)
T10 construct: whole, on cells; not shown: GFP fused to CD33

[14] = target: T11, Mutant CD33-GFP M11 (L78T) on 293FT cells (UniProt P20138 18-364)
T11 construct: whole, on cells; not shown: GFP fused to CD33

[15] = target: T12, Mutant CD33-GFP M12 (G88S) on 293FT cells (UniProt P20138 18-364)
T12 construct: whole, on cells; not shown: GFP fused to CD33

[16] = target: T13, Mutant CD33-GFP M13 (R91E) on 293FT cells (UniProt P20138 18-364)
T13 construct: whole, on cells; not shown: GFP fused to CD33

[17] = target: T14, Mutant CD33-GFP M14 (E170R) on 293FT cells (UniProt P20138 18-364)
T14 construct: whole, on cells; not shown: GFP fused to CD33

[18] = target: T15, Mutant CD33-GFP M15 (Q171A) on 293FT cells (UniProt P20138 18-364)
T15 construct: whole, on cells; not shown: GFP fused to CD33

[19] = target: T16, Mutant CD33-GFP JS23 (L23N) on 293FT cells (UniProt P20138 18-364)
T16 construct: whole, on cells; not shown: GFP fused to CD33

[20] = target: T17, Mutant CD33-GFP JS24 (Q24E) on 293FT cells (UniProt P20138 18-364)
T17 construct: whole, on cells; not shown: GFP fused to CD33

[21] = target: T18, Mutant CD33-GFP JS25 (V25M) on 293FT cells (UniProt P20138 18-364)
T18 construct: whole, on cells; not shown: GFP fused to CD33

[22] = target: T19, Mutant CD33-GFP JS28 (S28L) on 293FT cells (UniProt P20138 18-364)
T19 construct: whole, on cells; not shown: GFP fused to CD33
T19 sequence (P20138 18-364 S28L): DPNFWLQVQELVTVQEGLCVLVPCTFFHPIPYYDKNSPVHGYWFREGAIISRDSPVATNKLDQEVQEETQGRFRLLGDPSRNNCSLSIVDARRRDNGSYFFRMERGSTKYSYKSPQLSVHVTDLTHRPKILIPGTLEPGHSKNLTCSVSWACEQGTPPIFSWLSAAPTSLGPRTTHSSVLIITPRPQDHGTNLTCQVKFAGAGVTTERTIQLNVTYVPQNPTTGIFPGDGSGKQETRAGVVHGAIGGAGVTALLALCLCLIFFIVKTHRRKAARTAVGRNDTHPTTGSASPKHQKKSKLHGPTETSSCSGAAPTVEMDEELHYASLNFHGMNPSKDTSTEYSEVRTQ

T14 sequence (P20138 18-364 E170R): as the sequence (P20138 18-364 S28L) above, with L11S, E153R counted along it
T13 sequence (P20138 18-364 R91E): as the sequence (P20138 18-364 S28L) above, with L11S, R74E counted along it
T2 sequence (P20138 18-364 H45E): as the sequence (P20138 18-364 S28L) above, with L11S, H28E counted along it
T6 sequence (P20138 18-364 F43N): as the sequence (P20138 18-364 S28L) above, with L11S, F26N counted along it
T1 sequence (P20138 18-364 W22A): as the sequence (P20138 18-364 S28L) above, with W5A, L11S counted along it
T8 sequence (P20138 18-364 K52A): as the sequence (P20138 18-364 S28L) above, with L11S, K35A counted along it
T12 sequence (P20138 18-364 G88S): as the sequence (P20138 18-364 S28L) above, with L11S, G71S counted along it
T15 sequence (P20138 18-364 Q171A): as the sequence (P20138 18-364 S28L) above, with L11S, Q154A counted along it
T18 sequence (P20138 18-364 V25M): as the sequence (P20138 18-364 S28L) above, with V8M, L11S counted along it
T16 sequence (P20138 18-364 L23N): as the sequence (P20138 18-364 S28L) above, with L6N, L11S counted along it
T9 sequence (P20138 other isoform, or with tags, fused parts or gaps mutant): as the sequence (P20138 18-364 S28L) above, with L11S, Y32A, Y33A counted along it
T17 sequence (P20138 18-364 Q24E): as the sequence (P20138 18-364 S28L) above, with Q7E, L11S counted along it
T5 sequence (P20138 other isoform, or with tags, fused parts or gaps mutant): as the sequence (P20138 18-364 S28L) above, with W5A, L11S, H28E, N82A, R105D counted along it
T11 sequence (P20138 18-364 L78T): as the sequence (P20138 18-364 S28L) above, with L11S, L61T counted along it
T3 sequence (P20138 18-364 N99A): as the sequence (P20138 18-364 S28L) above, with L11S, N82A counted along it
T4 sequence (P20138 18-364 R122D): as the sequence (P20138 18-364 S28L) above, with L11S, R105D counted along it
T7 sequence (P20138 18-364 R98D): as the sequence (P20138 18-364 S28L) above, with L11S, R81D counted along it
T10 sequence (P20138 18-364 Y127A): as the sequence (P20138 18-364 S28L) above, with L11S, Y110A counted along it

FACS binding data [1]: 97.2 | FACS binding data [2]: 99.4 | FACS binding data [3]: 99.7 | FACS binding data [4]: 99.3 | FACS binding data [5]: 99.6 | FACS binding data [6]: 99.5 | FACS binding data [7]: 99.6 | FACS binding data [8]: 0.26 | FACS binding data [9]: 99.4 | FACS binding data [10]: 98.4 | FACS binding data [11]: 99.5 | FACS binding data [12]: 94.4 | FACS binding data [13]: 92.5 | FACS binding data [14]: 86.8 | FACS binding data [15]: 98.3 | FACS binding data [16]: 98.1 | FACS binding data [17]: 98.2 | FACS binding data [18]: 97.6 | FACS binding data [19]: 99.4 | FACS binding data [20]: 72.5 | FACS binding data [21]: 99.8 | FACS binding data [22]: 99.9
B1: hu195 (antibody, V domains shown)
VH: QVQLVQSGAEVKKPGSSVKVSCKASGYTFTDYNMHWVRQAPGQGLEWIGYIYPYNGGTGYNCIKFKSKATITADESTNTAYMELSSLRSEDTAVYYCARGRPAMDYWGQGTLVTVSS
VL: DIQMTQSPSSLSASVGDRVTITCRASESVDNYGISFMNWFQQKPGKAPKLLIYAASNQGSGVPSRFSGSGSGTDFTLTISSLQPDDFATYYCQQSKEVPWTFGQGTKVEIK
